Publication PMC8528861, “Structural and functional analysis of target recognition by the lymphocyte adaptor protein LNK” (Nature Communications, 2021)

Key:
[1] = target: biotinylated JAK2 pY813 peptide; test: SPR; direct binding: biotinylated JAK2 pY813 immobilised on a streptavidin chip; LNK and SH2B SH2 domains flowed over for 420 s at 30 μL/min; 10 mM HEPES pH 7.4, 150 mM NaCl, 3.4 mM EDA, 0.005% Tween 20
[2] = target: M. musculus LNK SH2 domain (residues 324–446), wild type (mouse) (UniProt O09039); test: SPR; competition: biotinylated IL6ST pY757 peptide immobilised on a streptavidin chip; 0.1–0.5 μM WT LNK SH2 domain pre-incubated with phosphopeptide and flowed over; 10 mM HEPES pH 7.4, 150 mM NaCl, 3.4 mM EDTA, 0.005% Tween 20; response normalised to LNK only, IC50 fit
Chain of M. musculus LNK SH2 domain (residues 324–446), wild type (mouse) (O09039 324-446): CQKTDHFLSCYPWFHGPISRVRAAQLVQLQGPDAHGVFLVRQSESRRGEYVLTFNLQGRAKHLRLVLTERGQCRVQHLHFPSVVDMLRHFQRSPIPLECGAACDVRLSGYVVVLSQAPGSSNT

IC50 [2] [nM]	Substance	other results
90	JAK2 pY813 peptide mutant +4A	
1430	JAK2 pY813 peptide mutant +3F	

The next lines start with the substance.

Substance	IC50 [2] [nM]	other results
M. musculus LNK SH2 domain R387C (from UniProt O09039 325-438) (domain or fragment)		fold loss in affinity relative to the WT SH2 domain [1]: 3 fold
JAK2 pY813 peptide mutant +5A	300	
JAK2 pY813 peptide mutant −1A	150	
mouse SH2B SH2 domain (from UniProt Q91ZM2 527-625) (domain or fragment)		Kd [1]: 100 nM
M. musculus LNK SH2 domain R387H (from UniProt O09039 325-438) (domain or fragment)		fold loss in affinity relative to the WT SH2 domain [1]: 10 fold
JAK2 pY813 peptide mutant +1A	430	
